Reference: US20200262888A1 (HANMI PHARM, published 2020)
Non-standard residues stand in square brackets, D forms with d. No end group written: not given here. *: point of attachment. Acetyl(2-(4-imidazolyl)) = O=C(Cc1c[nH]cn1)*

T1: human GLP-2 receptor (human, UniProt O95838 1-553)
T1 sequence (looked up): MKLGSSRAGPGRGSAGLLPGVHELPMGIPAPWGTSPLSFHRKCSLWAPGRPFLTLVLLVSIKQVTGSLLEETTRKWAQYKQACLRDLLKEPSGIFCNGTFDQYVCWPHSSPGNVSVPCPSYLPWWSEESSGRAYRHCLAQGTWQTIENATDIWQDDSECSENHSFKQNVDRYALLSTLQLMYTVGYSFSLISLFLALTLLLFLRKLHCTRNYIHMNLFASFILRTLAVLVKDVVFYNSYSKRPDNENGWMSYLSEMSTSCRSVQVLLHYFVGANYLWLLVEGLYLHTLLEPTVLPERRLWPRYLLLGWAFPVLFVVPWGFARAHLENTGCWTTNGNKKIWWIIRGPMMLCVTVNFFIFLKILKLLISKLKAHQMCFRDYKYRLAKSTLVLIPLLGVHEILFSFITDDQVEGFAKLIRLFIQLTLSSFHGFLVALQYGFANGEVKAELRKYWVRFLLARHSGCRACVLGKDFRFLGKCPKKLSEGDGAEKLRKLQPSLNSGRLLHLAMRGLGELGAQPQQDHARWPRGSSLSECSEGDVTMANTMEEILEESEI


Target: T1, human GLP-2 receptor
Test: cell-based or functional assay

Molecule | In vitro activity compared to human GLP-2 (%) (relative titer from EC50 of cAMP accumulation, CHO-K1 cells expressing human GLP-2 receptor)
[Acetyl(2-(4-imidazolyl))]GDGSFSDEMNTILDNLAARDFINWLIQTRITDC [CA GLP-2 RC] | 120%
XGDGSFSDEMNTILDNLAARDFINWLIQTKITDC (position 1 is imidazoacetyldeshistidine (caH) instead of histidine) [CA GLP-2 KC] | 149%
XGDGSFSDEMNTILDNLAARDFINWLIQTKITDK (position 1 is imidazoacetyldeshistidine (caH) instead of histidine) [CA GLP-2 KK] | 206%

Continued, values first:

In vitro activity compared to human GLP-2 (%) (relative titer from EC50 of cAMP accumulation, CHO-K1 cells expressing human GLP-2 receptor) | Molecule
148% | Teduglutide (Gattex, Shire) (peptide)
333% | [Acetyl(2-(4-imidazolyl))]GDGSFSDEMNTILDNLAARDFINWLIQTRITDK [CA GLP-2 RK]
